Data on 4 substances can be found in paper PMC5245964.

Experiment in all cases: AUC; sedimentation velocity, 42,000 rpm, 20°C, 0.3–0.5 mg/mL in buffer HST300, continuous c(s) distribution (SEDFIT)
The target in assay [1] is MBP-Mis18β (insect-cell-expressed) (human) (UniProt O43482).
Assay [2] deals with Mis18α:Mis18β complex (insect-cell-expressed) (human) (UniProt Q9NYP9). As to conditions: scale: M18BP1^1–140-MBP per Mis18α:Mis18β hexamer.
Assay [3] addresses 6His-Mis18β (insect-cell-expressed) (human) (UniProt O43482).
In assay [4] the target is Mis18β (insect-cell-expressed, untagged) (human) (UniProt O43482).
Mis18β (insect-cell-expressed, untagged) (human), sequence (O43482 whole entry): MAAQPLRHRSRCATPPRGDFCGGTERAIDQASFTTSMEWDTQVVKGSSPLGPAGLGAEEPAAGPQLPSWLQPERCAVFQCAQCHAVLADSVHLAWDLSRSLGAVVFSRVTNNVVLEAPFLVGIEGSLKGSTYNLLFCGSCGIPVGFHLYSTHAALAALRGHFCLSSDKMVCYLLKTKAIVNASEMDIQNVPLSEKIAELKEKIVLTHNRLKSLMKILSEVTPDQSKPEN

M18BP1^1–140-MBP, sequence (Q6P0N0 1-140): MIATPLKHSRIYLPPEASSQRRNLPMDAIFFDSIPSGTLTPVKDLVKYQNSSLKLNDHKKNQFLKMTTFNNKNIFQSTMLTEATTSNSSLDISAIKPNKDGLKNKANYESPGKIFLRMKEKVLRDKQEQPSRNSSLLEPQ
Mis18α (insect-cell-expressed, 6His cleaved), sequence (Q9NYP9 whole entry): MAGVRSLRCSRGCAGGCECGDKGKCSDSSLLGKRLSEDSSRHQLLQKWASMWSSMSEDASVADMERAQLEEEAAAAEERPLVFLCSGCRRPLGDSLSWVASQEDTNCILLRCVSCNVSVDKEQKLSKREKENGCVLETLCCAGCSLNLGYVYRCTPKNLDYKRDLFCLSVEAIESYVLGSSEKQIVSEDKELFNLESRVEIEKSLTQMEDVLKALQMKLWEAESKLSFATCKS
Mis18α:Mis18β complex (insect-cell-expressed) (human), sequence (Q9NYP9 whole entry, chain 1 of 2): as the sequence (Q9NYP9 whole entry) above
Mis18α:Mis18β complex (insect-cell-expressed) (human), sequence (O43482 whole entry, chain 2 of 2, further chain): as the sequence (O43482 whole entry) above
6His-Mis18α (insect-cell-expressed), sequence (Q9NYP9 whole entry): as the sequence (Q9NYP9 whole entry) above
MBP-Mis18α (insect-cell-expressed), sequence (Q9NYP9 whole entry): as above
MBP-Mis18β (insect-cell-expressed) (human), sequence (O43482 whole entry): as the sequence (O43482 whole entry) above
6His-Mis18β (insect-cell-expressed) (human), sequence (O43482 whole entry): as above

For “6His-Mis18α (insect-cell-expressed) (from UniProt Q9NYP9 1-233) (natural protein)”, in assay [1], the stoichiometry N (MBP-Mis18β per complex) came to 2.

What is called stoichiometry N is the number of molecules, sites or subunits per partner or assembly. The substance “M18BP1^1–140-MBP (from UniProt Q6P0N0 1-140) (domain or fragment)” had a stoichiometry N in assay [2] of 2. In assay [3], “MBP-Mis18α (insect-cell-expressed) (from UniProt Q9NYP9 1-233) (natural protein)” showed a stoichiometry N (MBP-Mis18α per complex) of 4. In turn, “Mis18α (insect-cell-expressed, 6His cleaved) (from UniProt Q9NYP9 1-233) (natural protein)” yielded a stoichiometry N (Mis18α per Mis18β (4:2 hexamer)) in assay [4] of 2.
